Source: publication PMC3159472

Molecular target: F-SSB-Ct peptide (SSB-Ct with an N-terminal fluoresceine moiety) (E. coli)
Test: fluorescence polarisation

Kd: 1100 nM
Substance: SSB–ExoI fusion protein
